How the values were obtained:
Assay in all cases: cell-based or functional assay
[1] = target: T1, human BCMA on the cell surface (human, UniProt Q02223 1-184)
T1 sequence (looked up): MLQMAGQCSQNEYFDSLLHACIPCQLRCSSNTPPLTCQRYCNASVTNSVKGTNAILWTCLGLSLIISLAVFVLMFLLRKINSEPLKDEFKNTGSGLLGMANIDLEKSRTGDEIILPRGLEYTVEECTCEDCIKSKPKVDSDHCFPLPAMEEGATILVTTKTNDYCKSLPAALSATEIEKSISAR

[2] = target: T1, human BCMA on the cell surface; remark: listed apart in the source
[3] = target: T1, human BCMA on the cell surface; remark: listed apart in the source
[4] = target: T1, human BCMA on the cell surface; remark: listed apart in the source
[5] = target: T1, human BCMA on the cell surface; remark: listed apart in the source
[6] = target: T1, human BCMA on the cell surface; remark: listed apart in the source
[7] = target: T1, human BCMA on the cell surface; remark: listed apart in the source

B1: 83A10-TCBcv (bispecific antibody, human IgG1, kappa, L234A L235A)
heavy 1: not shown
heavy 2: not shown
light 1: not shown
light 2: EVQLLESGGGLVQPGGSLRLSCAASGFTFSTYAMNWVRQAPGKGLEWVSRIRSKYNNYATYYADSVKGRFTISRDDSKNTLYLQMNSLRAEDTAVYYCVRHGNFGNSYVSWFAYWGQGTLVTVSSASVAAPSVFIFPPSDEQLKSGTASVVCLLNNFYPREAKVQWKVDNALQSGNSQESVTEQDSKDSTYSLSSTLTLSKADYEKHKVYACEVTHQGLSSPVTKSFNRGEC
With B1 the “EC50 redirected T-cell killing of L363 cells (LDH release), Donor 1” value [1] was 0.0168 nM, the “EC50 redirected T-cell killing of L363 cells (LDH release), Donor 2” value [1] was 0.0478 nM and the “EC50 redirected T-cell killing of L363 cells (LDH release), Donor 3” value [1] was 0.0284 nM. For the same binder, the “EC50 redirected T-cell killing of L363 cells (LDH release), Donor 4” value [1] was 0.0126 nM, the “EC50 redirected T-cell killing of L363 cells (LDH release), Donor 5” value [1] was 0.039 nM and the “Annexin-V positive patient bone marrow myeloma plasma cells (%) at 10 pM” value [2] was 16.8%. For the same binder, the “Annexin-V positive patient bone marrow myeloma plasma cells (%) at 100 pM” value [2] was 15.7%, the “Annexin-V positive patient bone marrow myeloma plasma cells (%) at 1000 pM” value [2] was 23.1% and the “Annexin-V positive patient bone marrow myeloma plasma cells (%) at 10000 pM” value [2] was 30.9%. The “Annexin-V positive patient bone marrow myeloma plasma cells (%) at 30000 pM” value [2] was 29.3%, the “Granzyme B secretion EC50, PBMC + RPMI-8226 cells (CBA)” value [3] was 0.34 nM and the “IL-10 secretion EC50, PBMC + RPMI-8226 cells (CBA)” value [3] was 0.3 nM. For the same binder, the “TNF-α secretion EC50, PBMC + RPMI-8226 cells (CBA)” value [3] was 0.52 nM, the “EC50 redirected T-cell killing of H929 cells (LDH release), Donor 1” value [4] was 0.0039 nM and the “EC50 redirected T-cell killing of H929 cells (LDH release), Donor 3” value [4] was 0.0085 nM. The “EC50 redirected T-cell killing of H929 cells (LDH release), Donor 4” value [4] was 0.005 nM, the “EC50 redirected T-cell killing of H929 cells (LDH release), Donor 5” value [4] was 0.0043 nM and the “EC50 redirected T-cell killing of H929 cells (LDH release), Donor 6” value [4] was 0.0015 nM. For the same binder, the “EC50 redirected T-cell killing of RPMI-8226 cells (LDH release), Donor 2” value [5] was 0.621 nM, the “EC50 redirected T-cell killing of RPMI-8226 cells (LDH release), Donor 3” value [5] was 0.229 nM and the “EC50 redirected T-cell killing of RPMI-8226 cells (LDH release), Donor 4” value [5] was 0.035 nM. The “EC50 redirected T-cell killing of RPMI-8226 cells (LDH release), Donor 5” value [5] was 0.0649 nM, the “Lysis of JJN-3 cells (%) at 0.1 pM, Experiment 2” value [6] was 22.3% and the “Lysis of JJN-3 cells (%) at 1 pM, Experiment 1” value [6] was 24.4%. For the same binder, the “Lysis of JJN-3 cells (%) at 1 pM, Experiment 2” value [6] was -1.88%, the “Lysis of JJN-3 cells (%) at 10 pM, Experiment 1” value [6] was 41.9% and the “Lysis of JJN-3 cells (%) at 10 pM, Experiment 2” value [6] was 39.6%. The “Lysis of JJN-3 cells (%) at 100 pM, Experiment 1” value [6] was 18.4%, the “Lysis of JJN-3 cells (%) at 100 pM, Experiment 2” value [6] was 20.1% and the “Lysis of JJN-3 cells (%) at 1000 pM, Experiment 1” value [6] was 26.7%. For the same binder, the “Lysis of JJN-3 cells (%) at 1000 pM, Experiment 2” value [6] was 25.3%, the “Lysis of JJN-3 cells (%) at 10000 pM, Experiment 1” value [6] was 70.3% and the “Lysis of JJN-3 cells (%) at 10000 pM, Experiment 2” value [6] was 51.2%. The “Annexin-V positive JJN-3 cells (%) at 0.1 pM, Experiment 2” value [7] was 13.1%, the “Annexin-V positive JJN-3 cells (%) at 1 pM, Experiment 1” value [7] was 11.4% and the “Annexin-V positive JJN-3 cells (%) at 1 pM, Experiment 2” value [7] was 14.3%. For the same binder, the “Annexin-V positive JJN-3 cells (%) at 10 pM, Experiment 1” value [7] was 11.1%, the “Annexin-V positive JJN-3 cells (%) at 10 pM, Experiment 2” value [7] was 15.9% and the “Annexin-V positive JJN-3 cells (%) at 100 pM, Experiment 1” value [7] was 9.12%. The “Annexin-V positive JJN-3 cells (%) at 100 pM, Experiment 2” value [7] was 16.5%, the “Annexin-V positive JJN-3 cells (%) at 1000 pM, Experiment 1” value [7] was 10.2% and the “Annexin-V positive JJN-3 cells (%) at 1000 pM, Experiment 2” value [7] was 17.5%. The “Annexin-V positive JJN-3 cells (%) at 10000 pM, Experiment 1” value [7] was 16.8% and the “Annexin-V positive JJN-3 cells (%) at 10000 pM, Experiment 2” value [7] was 22.9%.

Reference: patent publication US20230322957A1 (ENGMAB SARL, published 2023)
